Assay results published in article PMC5521794, “Understanding Russell’s viper venom factor V activator’s substrate specificity by surface plasmon resonance and in-silico studies” (PLoS ONE, 2017).

Target: Russell's viper venom factor V activator (Russell's viper, Natural, unmodified enzyme purified from Indian Russell's viper venom. The isoform (alpha or gamma) is not stated; gamma is assumed because the paper models RVV-V with PDB 3S9C. The candidate entry is)
Experiment: SPR; Biacore T200; RVV-V immobilised on a CM5 chip by amine coupling (3000 RU); peptides flowed over at 62.5 uM to 1 mM in PBS, 30 ul/min; association 120 s, dissociation 300 s; regeneration 10 mM glycine pH 2.5; two-state binding model
Conditions: both partners purified

B1: Peptide II (factor V cleavage site II, Lys1008-Pro1022) (peptide)
peptide: KHTHHAPLSPRTFHP
notes: also called site II peptide; source: synthetic peptide; bought: Genei
With B1 the Kd was 2.77 mM.
